For experiment [1], the target named is Human CD127 (IL-7 receptor alpha chain) expressed on cells (human) (UniProt P16871). In words: cell-based or functional assay.
Experiment [2] has as its target Recombinant hCD127 (Sino Biologicals, reference 10975-H08H) (human) (UniProt P16871). Put plainly: ELISA, recombinant hCD127 coated on plastic at 1 µg/ml, antibody titrated; printed as ED 50. In general terms: ELISA stands for enzyme-linked immunosorbent assay.
For experiment [3] the target is unchanged. Put plainly: ELISA on immobilised recombinant hCD127.
For experiment [4], the target named is Recombinant CD127 Fc Chimera (10975-H03H, Sino Biological) (human) (UniProt P16871). In words: SPR (Biacore 3000), CD127Fc immobilised on CM5 chip, antibody injected, Bivalent analyte model.
Sequence of Recombinant CD127 Fc Chimera (10975-H03H, Sino Biological) (human) (P16871 21-239 I66T/V138I limits assumed): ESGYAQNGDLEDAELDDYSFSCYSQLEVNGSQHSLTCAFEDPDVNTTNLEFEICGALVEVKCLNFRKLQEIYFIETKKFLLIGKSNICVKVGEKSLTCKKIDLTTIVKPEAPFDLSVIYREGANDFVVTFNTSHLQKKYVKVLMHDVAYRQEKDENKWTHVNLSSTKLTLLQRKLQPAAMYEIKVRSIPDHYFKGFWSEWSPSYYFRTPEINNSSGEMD

Sequence of Recombinant hCD127 (Sino Biologicals, reference 10975-H08H) (human) (P16871 21-239 I66T/V138I limits assumed): as above
Sequence of Human CD127 (IL-7 receptor alpha chain) expressed on cells (human) (P16871 21-459 I66T/V138I): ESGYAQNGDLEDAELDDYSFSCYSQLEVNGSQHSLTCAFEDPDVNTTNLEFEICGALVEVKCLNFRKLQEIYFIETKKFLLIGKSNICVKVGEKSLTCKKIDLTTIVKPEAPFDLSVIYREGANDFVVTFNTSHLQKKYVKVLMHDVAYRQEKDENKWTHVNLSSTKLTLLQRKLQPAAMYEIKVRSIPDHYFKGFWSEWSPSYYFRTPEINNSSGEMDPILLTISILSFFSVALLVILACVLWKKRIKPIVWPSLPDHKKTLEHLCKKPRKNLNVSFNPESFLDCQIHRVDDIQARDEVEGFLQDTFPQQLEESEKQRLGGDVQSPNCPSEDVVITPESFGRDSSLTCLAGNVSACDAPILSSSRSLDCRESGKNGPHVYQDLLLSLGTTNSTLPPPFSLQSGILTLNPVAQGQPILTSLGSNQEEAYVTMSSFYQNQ

B1: MD707-13 (anti-human CD127 antibody, WO2013/056984) (antibody, from another filing, V domains shown)
VH: QLKESGPGLVQPSQTLSLTCTVSGLSLPNNNIAWIRQSPGKGLEWMGVIWSNGDTDYNSAIRSRLSISRDSSKSQVFLRMNSLQSEDTAMYFCAREGMTTLDYWGQGVVVTVSS
VL: EIVLTQSPTTMAASPGEKVTITCRASSSVSYMHWFQQKSGSSPKPWIYDSSDLASGVPDRFSGSGSGTSYSLTISSMEAEDAATYYCLQRSSYPRTFGGGTKLELKR
Molecule B1 showed an inhibition of IL-7 induced pSTAT5+ T lymphocytes (% inhibition at 1000 ng/mL) in experiment [1] of 50.

B2: MD707-1 (rat anti-human CD127 antibody, previous generation) (antibody, from another filing, V domains shown)
VH: AVHLVESGGGLVQPKESLKISCAASGFTFSNAAMFWVRQAPGKGLEWVARIRTKANNYATYYADSVKGRFTISRDDSKSMVYLQMDNVKTDDTAMYYCIVVVLTTTRDYFDYWGQGVMVTVSS
VL: DIVLTQAPLSVSVTPGESASISCRSSQSLLTVKGITSLYWFLQKPGKSPQLLMYRMSNLASGVPDRFRGSGSETDFTLKISKVETEDVGVYYCAQFLEYPHTFGAGTKLELKR
As to B2, the EC50 in experiment [2] is 0.123 µg/mL. Besides, the EC50 (read off the curve) in experiment [3] amounted to 0.1 µg/mL. Further, in experiment [4], the Ka came to 2.19e+09 M⁻¹, the Kd came out at 456 pM, the koff was determined as 0.000121 s⁻¹ and the kon turned out to be 266000 M⁻¹ s⁻¹.

As usually defined, the EC50 is the midpoint of the concentration-response curve. By EC50 (read off the curve) is commonly meant the midpoint of the concentration-response curve. As a reminder, the koff is the first-order rate constant of dissociation. Broadly, the kon is a measure of how fast the partners come together.

The record behind these values is patent publication US20170129959A1.
